The source of these data is US20170165365A1 (SYMPHOGEN A S, published 2017).

T1: human HER4 antigen (human, UniProt Q15303 26-649, limits assumed)
T1 construct: Antigen coated for ELISA
T1 sequence (looked up): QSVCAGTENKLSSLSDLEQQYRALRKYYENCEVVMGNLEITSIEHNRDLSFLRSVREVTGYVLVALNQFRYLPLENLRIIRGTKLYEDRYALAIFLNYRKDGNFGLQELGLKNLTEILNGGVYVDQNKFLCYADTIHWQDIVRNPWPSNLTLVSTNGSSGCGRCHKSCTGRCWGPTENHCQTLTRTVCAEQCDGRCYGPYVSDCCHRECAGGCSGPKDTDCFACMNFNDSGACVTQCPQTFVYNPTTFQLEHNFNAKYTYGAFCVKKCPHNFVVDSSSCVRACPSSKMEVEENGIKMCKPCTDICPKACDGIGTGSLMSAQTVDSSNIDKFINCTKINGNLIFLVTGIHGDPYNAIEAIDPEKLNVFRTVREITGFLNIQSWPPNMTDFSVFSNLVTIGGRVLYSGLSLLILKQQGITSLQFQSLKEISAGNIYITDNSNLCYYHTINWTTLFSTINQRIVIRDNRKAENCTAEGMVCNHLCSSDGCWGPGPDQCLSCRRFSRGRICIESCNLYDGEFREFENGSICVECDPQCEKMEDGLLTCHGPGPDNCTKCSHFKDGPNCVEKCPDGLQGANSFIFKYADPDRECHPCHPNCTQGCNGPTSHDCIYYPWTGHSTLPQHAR

T2: murine HER4 antigen (mouse, UniProt Q61527 26-652, limits assumed)
T2 construct: In-house antigen coated for ELISA; also called mouse HER4
T2 sequence (looked up): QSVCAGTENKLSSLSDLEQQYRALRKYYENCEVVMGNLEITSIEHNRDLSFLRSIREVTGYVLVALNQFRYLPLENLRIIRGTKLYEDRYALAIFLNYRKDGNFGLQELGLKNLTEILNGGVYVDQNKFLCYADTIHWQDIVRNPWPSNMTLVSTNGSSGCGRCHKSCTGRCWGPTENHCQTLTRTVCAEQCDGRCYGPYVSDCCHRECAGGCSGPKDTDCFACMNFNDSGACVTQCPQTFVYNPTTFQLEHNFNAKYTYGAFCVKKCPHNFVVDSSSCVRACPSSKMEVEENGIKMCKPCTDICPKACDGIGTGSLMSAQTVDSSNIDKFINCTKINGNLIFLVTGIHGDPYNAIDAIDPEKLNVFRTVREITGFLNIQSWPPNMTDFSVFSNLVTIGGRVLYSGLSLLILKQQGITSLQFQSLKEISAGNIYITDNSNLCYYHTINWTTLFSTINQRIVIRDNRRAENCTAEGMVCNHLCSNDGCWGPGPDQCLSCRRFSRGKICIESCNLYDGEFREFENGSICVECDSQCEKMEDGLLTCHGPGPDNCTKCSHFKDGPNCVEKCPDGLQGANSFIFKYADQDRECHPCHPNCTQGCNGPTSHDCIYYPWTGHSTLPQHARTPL

B1: humanized anti-HER3 antibody 11006 (antibody, V domains shown)
VH: QVQLQESGPGLVKPSQTLSLTCTVSGYSITSAYYWNWIRQHPGKGVEWMGYIGYSGRNTYNPSLKNRVTISRDTSKNQFSLKLSSVTAADTAVYYCSREGDYGYSDYWGQGTLVTVSS
VL: DIQMTQSPSSLSASVGDRVTVTCRASQDTNNYLNWYQQKPGKAVKLLIYYTSRLQSGVPSRFSGSGSGTDFTLTISSLQPEDFATYFCQQSETLPWTFGQGTKVEIK
B2: humanized anti-HER3 antibody 11052 (antibody, V domains shown)
VH: B1 VH with H41F
VL: B1 VL with T29I, F71Y, V104L
B3: chimeric anti-HER2 antibody 4384 (antibody, V domains shown)
VH: QVQLQQPGTELVKPGASVKLSCKASGYTFTSHWMHWVKQRPGQGLEWIGNINPSNGGTNYNEKFKSRATLTVDKASSTAYMQLSSLTSEDSAVYYCARAYYDFSWFVYWGQGTLVTVS
VL: DIQMTQTSSSLSASLGDRVTISCRSSQDISNYLNWYQQKPDGTVKLLMYISRLHSGVPSRFSGSGSGTEYSLTISNLEQEDIATYFCQQGNTLPLTFGAGTKLELKR
notes: light chain entry is full length
B4: humanized anti-HER2 antibody 10704 (antibody, V domains shown)
VH: QVQLVQSGAEVKKPGASVKVSCKASGYTFTSHWMHWVRQAPGQGLEWMGNINPSSGGTNYNEKFKSRVTLTVDKSTSTAYMELSSLRSEDTAVYYCARAYYDFSWFVYWGQGTLVTVSS
VL: DIQMTQSPSSLSASVGDRVTITCRSSQDISNYLNWYQQKPGKAVKLLMYISRLHSGVPSRFSGSGSGTDYTFTISSLQPEDIATYYCQQGNTLPLTFGGGTKVEIK
B5: humanized anti-HER2 antibody 11145 (antibody, V domains shown)
VH: EVQLVESGGGLVKPGGSLRLSCAASGFTFSSYGMSWVRQAPGKGLEWVATISGGGSYTYYPDSVKGRFTISRDIAKSSLYLQMNSLRAEDTAVYYCARKGNYGNYGKLAYWGQGTTVTVSS
VL: DIQMTQSPSSLSASVGDRVTITCRASENIYSNLAWYQQKPGKAPKLLIYAATNLATGVPSRFSGSGSGTDYTLTISSLQPEDFASYYCQHFWGTPWTFGQGTKLEIK

One may read the Kd as a measure of binding affinity in units of concentration. As a reminder, the koff is the rate constant with which the complex falls apart. Low values mean a long-lived complex, high ones a short-lived complex. Broadly, the kon is the second-order rate constant of association. A higher kon goes with faster complex formation.

Residue numbers refer to the chain shown, from its start. Bounds are passed on as bounds.

The target of one test is T3, cynomolgus EGFR antigen (cynomolgus monkey, UniProt A0A2K5WK39 25-645).
T3 construct: In-house antigen; also called cynomolgus antigen
Briefly: ELISA, coated cy EGFR. The method, then: (§1) Antibody-antigen binding was measured by ELISA with coated antigens. Human antigens were obtained from Sino Biologicals. All other antigens were produced in-house by transient expression in CHO or HEK293 cells. Chimeric and humanized antibodies, as well as an isotype control antibody, were incubated with the coated antigens at different concentrations. After wash, bound antibodies were detected by HRP-(horse radish peroxidase)-conjugated secondary antibodies.
In general terms: An ELISA detects its analyte on a solid surface through an enzyme-linked reagent.
On to B1, for which the binding result is “no binding (tested: 40 nM)”.

On to B2, for which the binding result is recorded as “no binding (tested: 40 nM)”.

Regarding B3, the binding result is “no binding (tested: 40 nM)”.

Consider B4, for which the binding result is on record as “no binding (tested: 40 nM)”.

As for B5, the binding result is “no binding (tested: 40 nM)”.

In a further test the target is T4, cynomolgus HER3 antigen (cynomolgus monkey, UniProt G7PIG5 20-643).
T4 construct: In-house antigen; also called cynomolgus antigen
T4 sequence (G7PIG5 entry or part of it): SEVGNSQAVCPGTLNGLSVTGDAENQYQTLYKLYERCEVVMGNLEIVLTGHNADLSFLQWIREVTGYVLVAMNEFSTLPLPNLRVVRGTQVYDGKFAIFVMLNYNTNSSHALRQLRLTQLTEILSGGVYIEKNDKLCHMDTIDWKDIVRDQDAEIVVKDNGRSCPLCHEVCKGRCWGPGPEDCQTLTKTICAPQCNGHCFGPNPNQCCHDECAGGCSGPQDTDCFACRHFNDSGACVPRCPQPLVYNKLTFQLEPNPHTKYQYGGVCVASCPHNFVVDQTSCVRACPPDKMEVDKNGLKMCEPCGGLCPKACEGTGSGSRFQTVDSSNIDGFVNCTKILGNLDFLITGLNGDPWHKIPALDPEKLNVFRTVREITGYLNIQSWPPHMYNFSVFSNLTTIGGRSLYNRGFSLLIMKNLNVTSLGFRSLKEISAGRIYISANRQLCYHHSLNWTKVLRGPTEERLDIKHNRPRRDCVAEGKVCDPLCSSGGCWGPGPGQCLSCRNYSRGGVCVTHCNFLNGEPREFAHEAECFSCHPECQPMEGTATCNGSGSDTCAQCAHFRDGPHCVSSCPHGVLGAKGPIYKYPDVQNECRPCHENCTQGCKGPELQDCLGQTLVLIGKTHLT
Description: ELISA, coated cy HER3. The method, then:
as §1
Regarding B3, the binding result is given as “no binding (tested: 40 nM)”.

As for B4, the binding result is recorded as “no binding (tested: 40 nM)”.

As to B5, the binding result is “no binding (tested: 40 nM)”.

Another test has as its target T5, human EGFR antigen (Sino Biologicals) (human, UniProt P00533 25-645).
T5 construct: Bought soluble antigen; also called human antigen
Description: ELISA, coated hu EGFR. How it is done:
as §1
As to B1, the binding result is on record as “no binding (tested: 40 nM)”.

Consider B2, for which the binding result is on record as “no binding (tested: 40 nM)”.

With B3, the binding result is recorded as “no binding (tested: 40 nM)”.

In the case of B4, the binding result is on record as “no binding (tested: 40 nM)”.

On to B5, for which the binding result is recorded as “no binding (tested: 40 nM)”.

A further test has as its target T6, human HER2 antigen (Sino Biologicals) (human, UniProt P04626 23-652).
T6 construct: Bought soluble antigen; also called human antigen
Briefly: ELISA, coated hu HER2. How it is done:
as §1
For B1, the binding result is given as “no binding (tested: 40 nM)”.

B2: the binding result is listed as “no binding (tested: 40 nM)”.

In another test the target is T7, human HER3 antigen (Sino Biologicals) (human, UniProt P21860 20-643).
T7 construct: Bought soluble antigen; also called human antigen
Description: ELISA, coated hu HER3. How it is done:
as §1
Take B3: the binding result is recorded as “no binding (tested: 40 nM)”.

Regarding B4, the binding result is given as “no binding (tested: 40 nM)”.

For the molecule B5, the binding result was “no binding (tested: 40 nM)”.

The target of a further test is T1, human HER4 antigen. Description: ELISA, coated hu HER4. The method, then: as §1
In the case of B1, the binding result is reported as “no binding (tested: 40 nM)”.

On to B2, for which the binding result is “no binding (tested: 40 nM)”.

B3: the binding result is “no binding (tested: 40 nM)”.

As to B4, the binding result is “no binding (tested: 40 nM)”.

Regarding B5, the binding result was “no binding (tested: 40 nM)”.

The target in the next test is T8, mouse EGFR antigen (mouse, UniProt Q01279 25-647, limits assumed).
T8 construct: In-house antigen coated for ELISA; also called mouse antigen; murine EGFR
Description: ELISA, coated mu EGFR. The method, then: as §1
Turning to B1, the binding result was “no binding (tested: 40 nM)”.

As for B2, the binding result is on record as “no binding (tested: 40 nM)”.

With B3, the binding result is “no binding (tested: 40 nM)”.

Regarding B4, the binding result is given as “no binding (tested: 40 nM)”.

Take B5: the binding result was “no binding (tested: 40 nM)”.

For a further test, the target named is T9, mouse HER2 antigen (mouse, UniProt P70424 23-653, limits assumed).
T9 construct: In-house antigen coated for ELISA; also called mouse antigen; murine HER2
T9 sequence (P70424 23-653 limits assumed): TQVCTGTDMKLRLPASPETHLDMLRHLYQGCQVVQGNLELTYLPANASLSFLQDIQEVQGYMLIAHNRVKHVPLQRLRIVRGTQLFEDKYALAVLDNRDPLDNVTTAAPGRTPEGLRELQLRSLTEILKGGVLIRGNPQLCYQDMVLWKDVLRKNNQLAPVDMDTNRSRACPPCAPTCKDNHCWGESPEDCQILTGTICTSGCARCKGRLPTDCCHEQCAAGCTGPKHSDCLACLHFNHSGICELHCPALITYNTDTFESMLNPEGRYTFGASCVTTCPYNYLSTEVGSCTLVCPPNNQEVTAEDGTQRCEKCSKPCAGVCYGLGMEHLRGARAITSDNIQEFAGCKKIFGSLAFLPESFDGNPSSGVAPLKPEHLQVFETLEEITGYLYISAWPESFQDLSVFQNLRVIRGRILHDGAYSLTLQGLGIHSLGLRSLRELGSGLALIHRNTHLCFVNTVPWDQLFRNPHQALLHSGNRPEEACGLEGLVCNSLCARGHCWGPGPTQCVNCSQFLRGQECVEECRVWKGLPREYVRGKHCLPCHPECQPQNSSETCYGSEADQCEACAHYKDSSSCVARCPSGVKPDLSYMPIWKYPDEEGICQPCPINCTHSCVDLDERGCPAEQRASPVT
Description: ELISA, coated mu HER2. How it is done: as §1
Take B1: the binding result is “no binding (tested: 40 nM)”.

For B2, the binding result was “no binding (tested: 40 nM)”.

For B3, the binding result is “no binding (tested: 40 nM)”.

As to B4, the binding result was “no binding (tested: 40 nM)”.

Turning to B5, the binding result is “no binding (tested: 40 nM)”.

The target of a further test is T10, mouse HER3 antigen (mouse, UniProt Q61526 20-641, limits assumed).
T10 construct: In-house antigen coated for ELISA; also called mouse antigen; murine HER3
T10 sequence (Q61526 20-641 limits assumed): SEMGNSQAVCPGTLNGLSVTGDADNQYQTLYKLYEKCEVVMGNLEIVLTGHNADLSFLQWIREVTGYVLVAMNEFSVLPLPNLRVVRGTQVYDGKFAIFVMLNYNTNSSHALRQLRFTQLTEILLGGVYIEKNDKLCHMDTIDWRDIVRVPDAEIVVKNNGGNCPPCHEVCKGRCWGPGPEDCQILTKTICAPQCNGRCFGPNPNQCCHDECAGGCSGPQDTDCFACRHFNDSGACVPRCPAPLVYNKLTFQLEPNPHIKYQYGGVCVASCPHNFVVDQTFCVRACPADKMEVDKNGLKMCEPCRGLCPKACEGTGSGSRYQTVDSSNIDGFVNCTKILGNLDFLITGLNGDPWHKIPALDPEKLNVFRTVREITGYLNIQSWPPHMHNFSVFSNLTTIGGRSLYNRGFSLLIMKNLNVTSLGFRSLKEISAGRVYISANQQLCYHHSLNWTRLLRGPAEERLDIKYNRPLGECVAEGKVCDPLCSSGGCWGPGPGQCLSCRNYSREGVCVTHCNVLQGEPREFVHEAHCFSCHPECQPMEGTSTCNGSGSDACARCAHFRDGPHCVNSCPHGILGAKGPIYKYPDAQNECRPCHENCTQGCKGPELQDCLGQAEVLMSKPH
Briefly: ELISA, coated mu HER3. How it is done: as §1
B1: the binding result is “no binding (tested: 40 nM)”.

Regarding B2, the binding result is “no binding (tested: 40 nM)”.

For the molecule B3, the binding result is “no binding (tested: 40 nM)”.

Take B4: the binding result is reported as “no binding (tested: 40 nM)”.

B5: the binding result was “no binding (tested: 40 nM)”.

A further test has as its target T2, murine HER4 antigen. Description: ELISA, coated mu HER4. How it is done: as §1
For B1, the binding result is reported as “no binding (tested: 40 nM)”.

Regarding B2, the binding result was “no binding (tested: 40 nM)”.

B3: the binding result is listed as “no binding (tested: 40 nM)”.

For the molecule B4, the binding result is given as “no binding (tested: 40 nM)”.

B5: the binding result is reported as “no binding (tested: 40 nM)”.

The next test has as its target cynomolgus HER2 antigen (cynomolgus monkey). Description: SPR (ProteOn XPR36), IgG captured by anti-human Fc, soluble monovalent antigen, 1:1 fit.
The molecule B3 showed a Kd of 2.9 nM, an off-rate constant (koff) of 0.0005 s⁻¹ and an association rate constant (kon) of 180000 M⁻¹ s⁻¹.

Regarding B5, the Kd worked out at 12 nM, the koff worked out at 0.00063 s⁻¹ and the kon was 53000 M⁻¹ s⁻¹.

Another test concerns the target T7, human HER3 antigen (Sino Biologicals). The description is as above. How it is done: (§2) Kinetic binding analysis of the purified humanized variants was performed on a ProteOn™ XPR36 biosensor (BioRad, USA) employing an IgG capture assay as described by Canziani et al. (Anal. Biochem. (2004) 325:301-307) that allows for measurement of antibody affinities of whole IgG molecules against soluble antigen under monovalent conditions. Briefly, approximately 5000 resonance units (RU) of a monoclonal mouse anti-human IgG Fc antibody (GE Healthcare, Denmark) was conjugated to a GLC chip surface (BioRad, USA) according to the manufacturer's instructions, followed by capture of individual antibodies of the invention or a negative control on the anti-Fc sensor surface. […] Next, 250 μl monovalent antigen (Sino Biologicals) was injected at a flow rate of 50 μl/min in serial threefold dilutions from 100 nM stock to generate response curves. The chip surface was regenerated between cycles by stripping the captured antibody/antigen complexes off the surface with a 10-second injection of 3 M MgCl₂ (GE Healthcare, Denmark) repeated three times. Finally, binding responses were fitted to a Langmuir 1:1 binding model for calculation of the on-rate (kon or ka), off-rate (koff or kd) and affinity (KD) constants using double referencing.
In turn, B1 yielded an off-rate constant (koff) below 2e-06 s⁻¹ and a kon of 740000 M⁻¹ s⁻¹.

B2 returned an equilibrium dissociation constant (Kd) of 0.18 nM, a koff of 0.00016 s⁻¹ and a kon of 870000 M⁻¹ s⁻¹.

For a further test, the target named is T4, cynomolgus HER3 antigen. Described as above. The method, then: as §2
With B1, the Kd came out at 0.059 nM, the off-rate constant (koff) worked out at 8.7e-05 s⁻¹ and the kon stood at 1.5e+06 M⁻¹ s⁻¹.

In turn, B2 showed a Kd of 0.19 nM, an off-rate constant (koff) of 0.00026 s⁻¹ and a kon of 1.3e+06 M⁻¹ s⁻¹.
